Results on four molecules are retold here after patent US20240025959A1 (UNIVERSITY OF SOUTHERN CALIFORNIA, published 2024).

T1: Beclin 2 (human, full length) (human, UniProt A8MW95 1-431)
T1 construct: All tagged and endogenous human forms are kept under this one id; the form used is named under assay; also called BECN2; Flag-Beclin 2
T1 sequence: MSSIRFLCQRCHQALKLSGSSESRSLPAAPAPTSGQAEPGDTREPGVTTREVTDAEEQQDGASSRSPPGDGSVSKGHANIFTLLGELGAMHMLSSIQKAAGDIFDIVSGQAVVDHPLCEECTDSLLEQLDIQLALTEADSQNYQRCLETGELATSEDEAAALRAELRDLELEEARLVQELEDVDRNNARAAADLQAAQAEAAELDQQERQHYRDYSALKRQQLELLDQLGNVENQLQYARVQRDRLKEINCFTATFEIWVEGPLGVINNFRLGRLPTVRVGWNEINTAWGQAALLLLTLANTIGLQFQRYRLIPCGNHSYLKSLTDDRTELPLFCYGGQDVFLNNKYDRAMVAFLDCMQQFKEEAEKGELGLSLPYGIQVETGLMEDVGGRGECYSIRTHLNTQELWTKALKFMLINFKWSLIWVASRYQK

T2: ATG9A (human) (human, UniProt Q7Z3C6 1-839)
T2 construct: Transmembrane protein; co-IP from RIPA lysates; Tagged and endogenous human forms kept under one id; also called Flag-ATG9A; HA-ATG9A
T2 sequence (looked up): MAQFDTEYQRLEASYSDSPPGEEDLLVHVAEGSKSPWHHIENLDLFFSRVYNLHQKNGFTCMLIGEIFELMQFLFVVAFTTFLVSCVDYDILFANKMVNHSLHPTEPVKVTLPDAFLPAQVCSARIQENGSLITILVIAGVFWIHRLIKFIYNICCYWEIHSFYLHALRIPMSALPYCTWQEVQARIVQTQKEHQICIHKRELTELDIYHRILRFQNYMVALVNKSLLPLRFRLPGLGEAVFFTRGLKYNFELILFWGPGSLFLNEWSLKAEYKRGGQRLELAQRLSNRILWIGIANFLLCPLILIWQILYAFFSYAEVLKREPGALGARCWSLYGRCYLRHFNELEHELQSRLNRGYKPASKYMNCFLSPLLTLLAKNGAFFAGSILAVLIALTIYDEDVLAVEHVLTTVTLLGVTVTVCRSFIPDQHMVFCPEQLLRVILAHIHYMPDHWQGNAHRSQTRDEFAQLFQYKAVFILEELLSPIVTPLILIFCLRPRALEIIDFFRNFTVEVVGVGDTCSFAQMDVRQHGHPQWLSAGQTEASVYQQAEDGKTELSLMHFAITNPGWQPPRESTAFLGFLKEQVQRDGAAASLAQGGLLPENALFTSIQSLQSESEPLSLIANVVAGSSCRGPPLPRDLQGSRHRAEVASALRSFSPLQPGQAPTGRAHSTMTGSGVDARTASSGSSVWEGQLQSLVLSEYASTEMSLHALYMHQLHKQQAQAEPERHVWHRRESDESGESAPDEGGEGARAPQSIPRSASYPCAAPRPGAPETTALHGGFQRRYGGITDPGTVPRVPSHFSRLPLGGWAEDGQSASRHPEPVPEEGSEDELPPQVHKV

B1: ERK1 (enzyme, UniProt P27361 1-379, looked up)
chain: MAAAAAQGGGGGEPRRTEGVGPGVPGEVEMVKGQPFDVGPRYTQLQYIGEGAYGMVSSAYDHVRKTRVAIKKISPFEHQTYCQRTLREIQILLRFRHENVIGIRDILRASTLEAMRDVYIVQDLMETDLYKLLKSQQLSNDHICYFLYQILRGLKYIHSANVLHRDLKPSNLLINTTCDLKICDFGLARIADPEHDHTGFLTEYVATRWYRAPEIMLNSKGYTKSIDIWSVGCILAEMLSNRPIFPGKHYLDQLNHILGILGSPSQEDLNCIINMKARNYLQSLPSKTKVAWAKLFPKSDSKALDLLDRMLTFNPNKRITVEEALAHPYLEQYYDPTDEPVAEEPFTFAMELDDLPKERLKELIFQETARFQPGVLEAP
notes: also called Mapk3
B2: ATG9A (mouse, endogenous in BMDMs) (other, UniProt Q68FE2 2-839, looked up)
chain: AQFDTEYQRLEASYSDSPPGEEDLLVHVAEGSKSPWHHIENLDLFFSRVYNLHQKNGFTCMLIGEMFELMQFLFVVAFTTFLVSCVDYDILFANKMVNHSLHPTEPVKVTLPDAFLPAQVCSARIQENGSLITILVIAGVFWIHRLIKFIYNICCYWEIHSFYLHALRIPMSALPYCTWQEVQARIVQTQKEHQICIHKRELTELDIYHRILRFQNYMVALVNKSLLPLRFRLPGLGEVVFFTRGLKYNFELILFWGPGSLFLNEWSLKAEYKRGGQRLELAQRLSNRILWIGIANFLLCPLILIWQILYAFFSYAEVLKREPGALGARCWSLYGRCYLRHFNELEHELQSRLNRGYKPASKYMNCFLSPLLTLLAKNGAFFAGSILAVLIALTIYDEDVLAVEHVLTTVTLLGVTVTVCRSFIPDQHMVFCPEQLLRVILAHIHYMPDHWQGNAHRSQTRDEFAQLFQYKAVFILEELLSPIVTPLILIFCLRPRALEIIDFFRNFTVEVVGVGDTCSFAQMDVRQHGHPQWLSGGQTEASVYQQAEDGKTELSLMHFAITNPGWQPPRESTAFLGFLKEQVQRDGAAAGLAQGGLLPENALFTSIQSLQSESEPLSLIANVVAGSSCRGPSLSRDLQGSRHRADVASALRSFSPLQPGAAPQGRVPSTMTGSGVDARTASSGSSVWEGQLQSLVLSEYASTEMSLHALYMHQLHKQQTQAEPERHVWHRRESDESGESAPEEGGEGARAPQPIPRSASYPCATPRPGAPETTALHGGFQRRYGGITDPGTVPRGPSHFSRLPLGGWAEDGQPASRHPEPVPEEGSEDELPPQVHKV
notes: Endogenous protein in mouse BMDM lysates
B3: SEC22A (other, human, UniProt Q96IW7 1-307, looked up)
chain: MSMILSASVIRVRDGLPLSASTDYEQSTGMQECRKYFKMLSRKLAQLPDRCTLKTGHYNINFISSLGVSYMMLCTENYPNVLAFSFLDELQKEFITTYNMMKTNTAVRPYCFIEFDNFIQRTKQRYNNPRSLSTKINLSDMQTEIKLRPPYQISMCELGSANGVTSAFSVDCKGAGKISSAHQRLEPATLSGIVGFILSLLCGALNLIRGFHAIESLLQSDGDDFNYIIAFFLGTAACLYQCYLLVYYTGWRNVKSFLTFGLICLCNMYLYELRNLWQLFFHVTVGAFVTLQIWLRQAQGKAPDYDV
B4: AIM2 (mouse, endogenous in BMDMs) (other, UniProt Q91VJ1 1-354, looked up)
chain: MESEYREMLLLTGLDHITEEELKRFKYFALTEFQIARSTLDVADRTELADHLIQSAGAASAVTKAINIFQKLNYMHIANALEEKKKEAERKLMTNTKKRGTQKVENRSQAENCSAASATRSDNDFKEQAATEVCPQAKPQKKQMVAEQEAIREDLQKDPLVVTVLKAINPFECETQEGRQEIFHATVATETDFFFVKVLNAQFKDKFIPKRTIKISNYLWHSNFMEVTSSSVVVDVESNHEVPNNVVKRARETPRISKLKIQPCGTIVNGLFKVQKITEEKDRVLYGIHDKTGTMEVLVLGNPSKTKCEEGDKIRLTFFEVSKNGVKIQLKSGPCSFFKVIKAAKPKTDMKSVE

Experiment [1] deals with T1, Beclin 2 (human, full length). Kind of experiment: co-IP with anti-Flag beads and immunoblot; 293T cells co-transfected with Flag-Beclin 2 and an HA-tagged plasmid (FIG. 8A). In general terms: A western blot detects proteins with antibodies after separation by electrophoresis.
Procedure: The secondary antibody (Veriblot for IP detection reagent HRP) that only recognized native IgG but not denatured IgG was applied for immunoblotting of proteins in immunoprecipitates. For immunoprecipitation of Flag-tagged proteins, cell lysates were incubated with anti-Flag beads (Sigma) at 4° C. overnight. The beads were washed four times with RIPA lysis buffer, and immunoprecipitates were eluted with 2×SDS loading buffer. Immunoblotting was performed by loading the samples on SDS-PAGE gels, conducting electrophoresis, transferring the samples to PVDF membranes (Bio-Rad), and then incubating the membranes with the indicated antibodies. For all immunoblots, the LumiGLO Chemiluminescent Substrate System from KPL (Gaithersburg, MD) was used for protein detection.
Experiment [2] deals with NLRP3 (mouse, endogenous in BMDMs) (mouse, UniProt Q8R4B8 1-1033). Kind of experiment: endogenous co-IP; WT and Becn2 KO BMDM lysates (untreated or LPS 3 h) immunoprecipitated with ATG9A antibodies, immunoblot (FIG. 30F).
Chain of NLRP3 (mouse, endogenous in BMDMs) (Q8R4B8 whole entry): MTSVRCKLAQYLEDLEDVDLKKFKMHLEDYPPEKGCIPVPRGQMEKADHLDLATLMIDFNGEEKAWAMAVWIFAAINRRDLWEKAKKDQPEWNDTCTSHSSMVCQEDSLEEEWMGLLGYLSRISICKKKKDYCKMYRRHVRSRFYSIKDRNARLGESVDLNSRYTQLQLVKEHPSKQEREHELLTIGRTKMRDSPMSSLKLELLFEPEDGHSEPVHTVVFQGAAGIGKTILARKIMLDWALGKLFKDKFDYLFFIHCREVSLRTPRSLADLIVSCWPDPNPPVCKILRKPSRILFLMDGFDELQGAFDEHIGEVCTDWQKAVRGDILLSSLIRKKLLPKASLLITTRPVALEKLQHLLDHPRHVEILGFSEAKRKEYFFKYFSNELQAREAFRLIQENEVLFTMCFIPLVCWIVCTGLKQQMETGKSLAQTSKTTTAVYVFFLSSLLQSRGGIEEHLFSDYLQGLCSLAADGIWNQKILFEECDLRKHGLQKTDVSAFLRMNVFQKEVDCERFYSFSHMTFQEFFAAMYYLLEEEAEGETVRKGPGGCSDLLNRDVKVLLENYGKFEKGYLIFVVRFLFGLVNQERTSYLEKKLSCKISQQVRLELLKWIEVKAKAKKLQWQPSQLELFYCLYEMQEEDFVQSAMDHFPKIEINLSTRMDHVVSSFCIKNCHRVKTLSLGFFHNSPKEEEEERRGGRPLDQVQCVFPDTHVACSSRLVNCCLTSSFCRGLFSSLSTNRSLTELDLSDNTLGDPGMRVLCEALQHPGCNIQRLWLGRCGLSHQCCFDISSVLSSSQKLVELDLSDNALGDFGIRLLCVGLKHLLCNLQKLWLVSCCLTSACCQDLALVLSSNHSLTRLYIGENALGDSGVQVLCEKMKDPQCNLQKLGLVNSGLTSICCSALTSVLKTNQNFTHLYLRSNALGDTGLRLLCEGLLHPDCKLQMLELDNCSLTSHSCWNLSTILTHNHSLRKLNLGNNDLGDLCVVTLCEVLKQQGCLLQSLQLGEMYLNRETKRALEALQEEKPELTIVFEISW
In experiment [3] the target is T2, ATG9A (human). Description: endogenous co-IP; WT and BECN2 KO THP-1 cell lysates immunoprecipitated with ATG9A antibodies, immunoblot (FIG. 32D).
Procedure: (§1) Whole cell lysates obtained 24 h post-transfection or via ligand stimulation were obtained using RIPA lysis buffer and shook on ice for 15 min. The HEK293T cell lysates were immunoprecipitated with anti-Flag conjugated beads (BioLegend) at 4° C. overnight. […] The beads were washed five times with RIPA lysis buffer, and immunoprecipitates were eluted with 2×SDS loading buffer and subjected to SDS-PAGE gel electrophoresis, followed by immunoblotting. The secondary antibody (Veriblot for IP detection, HRP-conjugated) that only recognized native IgG but not denatured IgG was applied for immunoblotting of endogenous proteins in immunoprecipitates.
Experiment [4] addresses T1, Beclin 2 (human, full length). Kind of experiment: co-IP with anti-Flag beads and immunoblot; HEK293T cells co-transfected with HA-Beclin 2 and Flag-tagged SNARE or RAB proteins (FIG. 32A).
Procedure: as §1
In experiment [5] the target is B2. Kind of experiment: endogenous co-IP; WT and Becn2 KO BMDM lysates (untreated or LPS 3 h) immunoprecipitated with ATG9A antibodies, immunoblot (FIG. 30F).

For the molecule B1, the binding result in experiment [1] is on record as “no binding”.
As to B2, in experiment [2], the binding result was “binds”.
B3: the binding result in experiment [3] and in experiment [4] was “binds” throughout.
B4: the binding result in experiment [5] was “binds”.
